The text below walks through data of publication PMC10065799, “High-throughput profiling of sequence recognition by tyrosine kinases and SH2 domains using bacterial peptide display” (eLife, 2023).

As a reminder, the Km is the concentration of substrate that gives half-maximal velocity.

Square brackets hold non-standard residues; d marks the D form. pY = N[C@@H](Cc1ccc(OP(=O)(O)O)cc1)C(=O)O

For test [1], the target named is T1, c-Src kinase domain (Homo sapiens, UniProt P12931). Kind of test: ADP-Quest continuous fluorimetric kinase assay (Michaelis-Menten parameters and initial rates). The settings on record: c-Src kinase domain 10 nM, 100 μM ATP, 37 °C, three to five replicates, error = standard error of global Michaelis-Menten fit. Type of test: biochemical. An excerpt:
A fluorescence-based assay from Eurofins (ADP Quest) was used to measure the Michaelis-Menten kinetic parameters for phosphorylation of the consensus peptides by purified tyrosine kinase domains. In this assay, ADP production as a result of kinase activity is coupled to the production of resorufin, a fluorophore that emits signal at 590 nm. For all experiments, the assay reactions were set up as described in the provided assay kit protocol, in a 384 well plate format. The peptide solutions were serially diluted in 100 mM Tris, pH 8.0, and the kinases were diluted to 50 nM in buffer (10 mM HEPES, 100 mM NaCl, 1 mM TCEP, 5 mM MgCl2, 10% (v/v) glycerol). The final reaction mixtures contained 10 nM of kinase with 100 μM of ATP. […] Phosphorylation reaction progress was monitored by measuring fluorescence at excitation 530 nm and emission 590 nm every 2 min at 37 °C on a plate reader (BioTek Synergy Neo 2). The fluorescence units (RFU) were converted to μM ADP by comparison to a standard curve, and the initial rates were extracted from the linear regime of the reaction progress curves. Initial rates were also measured for samples containing each kinase but lacking a peptide substrate, to account for background ATP hydrolysis. This background rate was subtracted from the rates measured in the presence of peptide. […]

Test [2] addresses T1, c-Src kinase domain. Kind of test: RP-HPLC assay to measure peptide phosphorylation kinetics. The format is biochemical. Particulars: purified peptide substrate. As for the experimental part: To validate the enrichment scores observed in the c-Src screening data, the phosphorylation rates were measured in vitro with the purified catalytic domain of c-Src and synthetic 11-residue peptides derived from sequences in the pTyr-Var library. […] Reactions were initiated by adding 1 mM ATP. At various time points, 100 μL aliquots were removed and quenched by the addition of EDTA to a final concentration of 25 mM. Each time point sample was analyzed by analytical RP-HPLC, monitoring absorbance at 214 nm. Forty μL of each time point was injected onto a C18 column (ZORBAX 300 SB-C18, 5 μm, 4.6x150 mm). The solvent system used was water with 0.1% trifluoroacetic acid (solvent A) and acetonitrile with 0.1% trifluoroacetic acid (solvent B). […] The fractional product peak area was plotted as a function of reaction time, and the initial linear regime of this plot was fitted to a straight line to determine a reaction rate. Rates were corrected for substrate and enzyme concentration. Reactions were done in triplicate or quadruplicate.

Test [3] concerns the target human c-Src SH2 domain (residues 143-250) (human, UniProt P12931-1 143-250, biotin on the Avi tag (co-expression with the biotin ligase BirA)). Nature of the test: fluorescence polarisation; competition: unlabeled phosphopeptide serially diluted against 30 nM fluorescent peptide and 240 nM (1.5 x KD) c-Src SH2; same buffer; 25 °C; cubic binding equation. The settings on record: both partners purified. A general note: Polarisation of emitted light reports the rotation of a fluorescent probe.

Another test deals with FGFR1 kinase domain. Nature of the test: LC-MS assay of intact SHP2 protein phosphorylation. The format is biochemical, human. Particulars: SHP2 10 μM, kinase 1 μM, 1 hr, 37 °C, 2 to 3 measurements. As for the experimental part:
(§1) The same protocol used to express and purify SH2 domains, excluding co-expression of BirA and addition of biotin, was applied to the expression and purification of the SHP2 variants.
(§2) To pre-activate the kinases, 1 μM of each purified kinase domain was preincubated at 37 °C for 30 min in the same buffer conditions used in the kinase domain peptide display screen, with 1 mM ATP. The reaction of the kinase with SHP2 was initiated with the addition of 10 μM SHP2, and the mixture was incubated in 37 °C for 1 hr. To terminate the reaction, the mixture was quenched with 200 mM EDTA. The reaction mixture was diluted 3:2 in water and injected onto a BEH C8 column (Waters) on a UPLC-MS system (Xevo QToF, Waters). Reverse-phase liquid chromatography was carried out at 0.3 mL/min with solvents A (H2O, 0.1% (v/v) formic acid) and B (acetonitrile, 0.1% (v/v) formic acid). Proteins were eluted over a gradient of 5–95% B for 8.5 min. The protein peak on the chromatogram was deconvoluted using the MaxEnt1 algorithm from 32,000–65,000 Da with a resolution of 1 Da/channel over 30 iterations. Peaks were chosen according to the theoretical MW of the protein within a range of 5 Da, and integrated for the signal intensity.

Another test has as its system Fyn kinase domain. Kind of test: LC-MS assay of intact SHP2 protein phosphorylation. Particulars: SHP2 10 μM, kinase 1 μM, 1 hr, 37 °C, 2 to 3 measurements. The format is biochemical, human. As for the experimental part:
as §1, §2

With “Ac-GAEEEIYGIFGAKKKG-NH2 [SrcTide (2014), previously reported c-Src consensus substrate (Deng et al., 2014)]”, at c-Src kinase domain [1], the Km was determined as 7 ± 3 µM and the kcat is reported as 1.8±0.1 s^–1.
As to Ac-AGQEEYSAMRD-NH2 [HRAS-Y64], on c-Src kinase domain [2], the “Phosphorylation Rate” value amounted to 0.156 s⁻¹.

B1: ACTA1_Y171_YF phosphopeptide Ac-QPIFEG(pY)ALPHAG-NH2 (peptide)
peptide: Ac-QPIFEG[pY]ALPHAG-NH2
SMILES: CC[C@H](C)[C@H](NC(=O)[C@@H]1CCCN1C(=O)[C@H](CCC(N)=O)NC(C)=O)C(=O)N[C@@H](Cc1ccccc1)C(=O)N[C@@H](CCC(=O)O)C(=O)NCC(=O)N[C@@H](Cc1ccc(OP(=O)(O)O)cc1)C(=O)N[C@@H](C)C(=O)N[C@@H](CC(C)C)C(=O)N1CCC[C@H]1C(=O)N[C@@H](Cc1c[nH]cn1)C(=O)N[C@@H](C)C(=O)NCC(N)=O
notes: source: synthetic peptide (synthesized in-house, RP-HPLC purified)
As to B1, in test [3], the binding result is given as “binds”.

B2: ACTA1_Y171_A172G_YF phosphopeptide Ac-QPIFEG(pY)GLPHAG-NH2 (peptide)
peptide: Ac-QPIFEG[pY]GLPHAG-NH2
SMILES: CC[C@H](C)[C@H](NC(=O)[C@@H]1CCCN1C(=O)[C@H](CCC(N)=O)NC(C)=O)C(=O)N[C@@H](Cc1ccccc1)C(=O)N[C@@H](CCC(=O)O)C(=O)NCC(=O)N[C@@H](Cc1ccc(OP(=O)(O)O)cc1)C(=O)NCC(=O)N[C@@H](CC(C)C)C(=O)N1CCC[C@H]1C(=O)N[C@@H](Cc1c[nH]cn1)C(=O)N[C@@H](C)C(=O)NCC(N)=O
notes: as for B1
As for B2, in test [3], the binding result is “binds”.

B3: SHP2 wild-type: human full-length SHP2 (residues 1–526; C459E) (protein, UniProt Q06124 2-593, looked up, variant C459E)
Tyrosine-protein phosphatase …: TSRRWFHPNITGVEAENLLLTRGVDGSFLARPSKSNPGDFTLSVRRNGAVTHIKIQNTGDYYDLYGGEKFATLAELVQYYMEHHGQLKEKNGDVIELKYPLNCADPTSERWFHGHLSGKEAEKLLTEKGKHGSFLVRESQSHPGDFVLSVRTGDDKGESNDGKSKVTHVMIRCQELKYDVGGGERFDSLTDLVEHYKKNPMVETLGTVLQLKQPLNTTRINAAEIESRVRELSKLAETTDKVKQGFWEEFETLQQQECKLLYSRKEGQRQENKNKNRYKNILPFDHTRVVLHDGDPNEPVSDYINANIIMPEFETKCNNSKPKKSYIATQGCLQNTVNDFWRMVFQENSRVIVMTTKEVERGKSKCVKYWPDEYALKEYGVMRVRNVKESAAHDYTLRELKLSKVGQGNTERTVWQYHFRTWPDHGVPSDPGGVLDFLEEVHHKQESIMDAGPVVVHESAGIGRTGTFIVIDILIDIIREKGVDCDIDVPKTIQMVRSQRSGMVQTEAQYRFIYMAVQHYIETLQRRIEEEQKSKRKGHEYTNIKYSLADQTSGDQSPLPPCTPTPPCAEMREDSARVYENVGLMQQQKSFR
For B3, the “phosphorylation of intact SHP2 by FGFR1” value with FGFR1 kinase domain is listed as “fastest”. Also, the “phosphorylation of intact SHP2 by Fyn” value in the test with Fyn kinase domain is “slowest”.
